Results as given in IntAct's records for PubMed 22949673.

B1: 5-cytosine rRNA methyltransferase NSUN4 (Homo sapiens), Q96CB9-1 (parent)
chain: MAALTLRGVRELLKRVDLATVPRRHRYKKKWAATEPKFPAVRLALQNFDMTYSVQFGDLWPSIRVSLLSEQKYGALVNNFAAWDHVSAKLEQLSAKDFVNEAISHWELQSEGGQSAAPSPASWACSPNLRCFTFDRGDISRFPPARPGSLGVMEYYLMDAASLLPVLALGLQPGDIVLDLCAAPGGKTLALLQTGCCRNLAANDLSPSRIARLQKILHSYVPEEIRDGNQVRVTSWDGRKWGELEGDTYDRVLVDVPCTTDRHSLHEEENNIFKRSRKKERQILPVLQVQLLAAGLLATKPGGHVVYSTCSLSHLQNEYVVQGAIELLANQYSIQVQVEDLTHFRRVFMDTFCFFSSCQVGELVIPNLMANFGPMYFCKMRRLT
partner: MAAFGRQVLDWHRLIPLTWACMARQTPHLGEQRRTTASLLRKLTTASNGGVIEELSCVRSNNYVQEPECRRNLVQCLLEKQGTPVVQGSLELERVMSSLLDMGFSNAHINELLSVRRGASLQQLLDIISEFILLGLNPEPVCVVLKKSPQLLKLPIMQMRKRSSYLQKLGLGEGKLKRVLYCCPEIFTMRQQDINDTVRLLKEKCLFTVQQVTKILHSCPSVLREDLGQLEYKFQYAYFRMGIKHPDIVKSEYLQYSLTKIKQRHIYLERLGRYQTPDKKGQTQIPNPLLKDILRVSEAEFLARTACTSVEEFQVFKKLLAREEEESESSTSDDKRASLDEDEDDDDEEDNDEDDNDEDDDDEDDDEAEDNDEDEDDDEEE

Variants of: B1
Details: with mtef4_human MTERF4, Q7Z6M4

Question: How did the “effect of a mutation on the interaction” value turn out when V65R;R136A;I139R;R141A was run?
Answer: The value was “disrupting interaction strength”.
